Measurements as given in patent US20210188980A1 (SHANGHAI EPIMAB BIOTHERAPEUTICS, published 2021).

What was measured:
[1] = target: T1, recombinant human LAG-3-his protein (Novoprotein) (human, UniProt P18627 23-450); assay: BLI Octet, Ab on AHC sensor, huLAG-3-his analyte
T1 construct: Bought; also called huLAG-3; not shown: His tag
T1 sequence (looked up): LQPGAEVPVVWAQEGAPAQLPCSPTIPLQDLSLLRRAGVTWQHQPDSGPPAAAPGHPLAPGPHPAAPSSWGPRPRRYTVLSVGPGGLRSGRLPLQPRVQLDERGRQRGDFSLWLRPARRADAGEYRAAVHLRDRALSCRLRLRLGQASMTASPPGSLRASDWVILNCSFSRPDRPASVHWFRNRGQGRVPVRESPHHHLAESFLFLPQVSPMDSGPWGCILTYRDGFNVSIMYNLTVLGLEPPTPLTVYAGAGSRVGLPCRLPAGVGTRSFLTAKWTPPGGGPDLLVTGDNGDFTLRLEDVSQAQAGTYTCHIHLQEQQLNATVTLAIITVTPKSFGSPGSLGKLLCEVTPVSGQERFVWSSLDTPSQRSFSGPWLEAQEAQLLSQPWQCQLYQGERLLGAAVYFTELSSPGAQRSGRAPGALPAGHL
Experimental: (§1) All 9 humanized antibodies (Table 25) and a chimeric antibody having the parental murine VH and VL domains (mAb747c) were ranked by dissociation rate constant (koff). Briefly, antibodies were characterized for affinities and binding kinetics by Octet RED96 biolayer interferometry (Pall FortéBio LLC). Antibodies were captured by Anti-HIgG Fc Capture (AHC) Biosensors (Pall) at a concentration of 100 nM for 30 seconds. Sensors were then dipped into running buffer (1× pH7.2 PBS, 0.05% Tween 20, 0.1% BSA) for 60 seconds to check baseline. Binding was measured by dipping sensors into a single concentration of recombinant human LAG-3-his protein (Novoprotein). Dissociation was followed by dipping sensors into running buffer for 1200 seconds. The association and dissociation curves were fitted to a 1:1 Langmuir binding model using FortéBio Data Analysis software (Pall).

[2] = target: T1, recombinant human LAG-3-his protein …; assay: BLI Octet, Ab on AHC sensor, huLAG-3-his; test group 4
Experimental: as §1, with “All 18” for “All 9”, “(Table 34)” for “(Table 25)”, “by Octet®RED96” for “by Octet RED96”, “(Pall ForteBio” for “(Pall FortéBio”, “by Anti-hIgG” for “by Anti-HIgG”, “(Pall). In each test group, the off-rates of antibodies were able to be compared with that of mAb747c. The off-rate ratios were calculated by the off-rate of antibody to that of mAb747c of its group and were compared all together. The lower the ratio was, the higher was the affinity of the antibody.” for “(Pall).”

[3] = target: T1, recombinant human LAG-3-his protein …; assay: BLI Octet, Ab on AHC sensor, huLAG-3-his; test group 1
Experimental: as §1, with “All 18” for “All 9”, “(Table 34)” for “(Table 25)”, “by Octet®RED96” for “by Octet RED96”, “(Pall ForteBio” for “(Pall FortéBio”, “by Anti-hIgG” for “by Anti-HIgG”, “(Pall). In each test group, the off-rates of antibodies were able to be compared with that of mAb747c. The off-rate ratios were calculated by the off-rate of antibody to that of mAb747c of its group and were compared all together. The lower the ratio was, the higher was the affinity of the antibody.” for “(Pall).”

[4] = target: T1, recombinant human LAG-3-his protein …; assay: BLI Octet, Ab on AHC sensor, huLAG-3-his; test group 3
Experimental: as §1, with “All 18” for “All 9”, “(Table 34)” for “(Table 25)”, “by Octet®RED96” for “by Octet RED96”, “(Pall ForteBio” for “(Pall FortéBio”, “by Anti-hIgG” for “by Anti-HIgG”, “(Pall). In each test group, the off-rates of antibodies were able to be compared with that of mAb747c. The off-rate ratios were calculated by the off-rate of antibody to that of mAb747c of its group and were compared all together. The lower the ratio was, the higher was the affinity of the antibody.” for “(Pall).”

[5] = target: T1, recombinant human LAG-3-his protein …; assay: BLI Octet, Ab on AHC sensor, huLAG-3-his; test group 2
Experimental: as §1
(§2) All 13 humanized antibodies (Table 39) and chimeric anti-LAG-3 antibody mAb747c having the parental murine VH and VL domains were ranked by dissociation rate constant (koff) in the same manner described in Example 9.1 supra. In each test group, the off-rates of antibodies were able to be compared with that of mAb747c. The off-rate ratios were calculated by the off-rate of antibody to that of mAb747c of its group and were compared all together. The lower the ratio was, the higher was the affinity of the antibody.

[6] = target: T1, recombinant human LAG-3-his protein …; assay: as above; remark: listed apart in the source
Experimental: as §1, with “All 18” for “All 9”, “(Table 34)” for “(Table 25)”, “by Octet®RED96” for “by Octet RED96”, “(Pall ForteBio” for “(Pall FortéBio”, “by Anti-hIgG” for “by Anti-HIgG”, “(Pall). In each test group, the off-rates of antibodies were able to be compared with that of mAb747c. The off-rate ratios were calculated by the off-rate of antibody to that of mAb747c of its group and were compared all together. The lower the ratio was, the higher was the affinity of the antibody.” for “(Pall).”

[7] = target: T1, recombinant human LAG-3-his protein …; assay: as above; remark: listed apart in the source
Experimental: as §1
(§3) The seven Fab clones were converted to full IgG proteins. Briefly, the VH and VL genes were produced synthetically and then cloned into vectors containing coding sequences for the human IgG1 and human kappa constant domains, respectively. The heavy chain and cognate light chain plasmids were co-transfected into HEK 293E cells, individually. After approximately six days of post-transfection cell culture, the supernatants were harvested and subjected to Protein A affinity chromatography. The affinity of purified antibodies was ranked by Octet® RED96 biolayer interferometry (see, Example 9.1, supra).

[8] = target: T1, recombinant human LAG-3-his protein …; assay: BLI Octet, Ab on AHC sensor, huLAG-3-his; test group 1; remark: listed apart in the source
Experimental: as §1, §3

[9] = target: T1, recombinant human LAG-3-his protein …; assay: as above; remark: listed apart in the source
Experimental: as §1, §2

[10] = target: T1, recombinant human LAG-3-his protein …; assay: BLI Octet, Ab on AHC sensor, huLAG-3-his; test group 3; remark: listed apart in the source
Experimental: as §1, §2

[11] = target: T2, human LAG-3 ECD/Fc fusion protein (human); assay: SPR Biacore, HuLAG-3 ECD/Fc on chip, Ab analyte
T2 construct: also called HuLAG-3 ECD/Fc

[12] = target: T2, human LAG-3 ECD/Fc fusion protein; assay: SPR Biacore, HuPD-1 ECD/Fc and HuLAG-3 ECD/Fc both on chip, Ab analyte
human PD-1-His protein = target: T3, human PD-1-His protein (human, UniProt Q15116 25-167, limits assumed); assay: SPR Biacore, Ab captured, huPD-1-His analyte
T3 construct: also called huPD-1; not shown: His tag
Experimental: (§4) All 15 humanized antibodies and the chimeric antibody (mAb709c) were characterized by binding ELISA and cell-based RBA. For cell-based RBA, 2×10⁵ cells/well of CHO-K1-huPD1 cells were added to a pre-blocked 96-well round-bottomed plate and after washing, 50 μl antibodies with diluted concentration ranging from 0.064 nM to 200 nM were added to each well. Next, 50 μl of 60 μg/ml biotinylated PD-L1/Fc or biotinylated PD-L2/Fc protein were added. After gentle mixing and incubation at 4° C., the cells were washed and stained by Alexa Fluor™ 488 streptavidin solution (1:1000, ThermoFisher Scientific; Cat. No. S32354). Signals were readout by FACS and curves were fitted by GraphPad software. […] The association and dissociation rate constants, k (M⁻¹ s⁻¹) and koff(s⁻¹), respectively, were determined by making kinetic binding measurements at five different concentrations of human PD-1-His protein at a continuous flow rate of 30 μl/min. The equilibrium dissociation constant KD (M) of the reaction between antibodies and related target proteins was calculated from the kinetic rate constants using the formula KD=koff/kₒₙ. HumAb709-8 had minimal back-mutation(s) while maintaining to the greatest extent the affinity of the parental variable domains on chimeric mAb709c.

[13] = target: T4, human PD-1 ECD/Fc fusion protein (human); assay: SPR Biacore, HuPD-1 ECD/Fc and HuLAG-3 ECD/Fc both on chip, Ab analyte
T4 construct: also called huPD-1/Fc; HuPD-1 ECD/Fc

[14] = target: T5, human PD-1 expressed on cells (human, UniProt Q15116 25-288); assay: cell RBA FACS, CHO-K1-huPD1; competitor biotin-PD-L2/Fc
T5 construct: whole, on cells; also called CHO-K1/huPD-1; CHO-K1-hPD-1 cells
Experimental: as §4

[15] = target: T4, human PD-1 ECD/Fc fusion protein; assay: SPR Biacore, HuPD-1 ECD/Fc on chip, Ab analyte
[16] = target: T5, human PD-1 expressed on cells; assay: cell RBA FACS, CHO-K1-huPD1; competitor biotin-PD-L1/Fc
Experimental: as §4

T3 sequence (Q15116 25-167 limits assumed): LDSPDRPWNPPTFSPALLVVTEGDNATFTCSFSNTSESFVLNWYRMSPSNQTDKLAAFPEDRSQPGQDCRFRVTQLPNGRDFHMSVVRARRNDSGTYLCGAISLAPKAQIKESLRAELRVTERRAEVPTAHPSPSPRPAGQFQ
T4 sequence (chain, as listed by the source limits assumed): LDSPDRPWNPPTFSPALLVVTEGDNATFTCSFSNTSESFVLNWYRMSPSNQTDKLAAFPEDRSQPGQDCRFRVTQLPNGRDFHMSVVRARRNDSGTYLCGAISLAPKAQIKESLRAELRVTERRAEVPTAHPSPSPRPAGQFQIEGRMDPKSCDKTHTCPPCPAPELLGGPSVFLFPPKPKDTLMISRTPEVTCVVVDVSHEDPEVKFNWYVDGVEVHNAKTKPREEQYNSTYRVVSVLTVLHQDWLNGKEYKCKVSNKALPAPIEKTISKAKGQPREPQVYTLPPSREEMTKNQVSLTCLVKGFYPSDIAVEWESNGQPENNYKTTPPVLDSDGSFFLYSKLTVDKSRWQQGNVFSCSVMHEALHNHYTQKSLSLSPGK
T5 sequence (Q15116 25-288): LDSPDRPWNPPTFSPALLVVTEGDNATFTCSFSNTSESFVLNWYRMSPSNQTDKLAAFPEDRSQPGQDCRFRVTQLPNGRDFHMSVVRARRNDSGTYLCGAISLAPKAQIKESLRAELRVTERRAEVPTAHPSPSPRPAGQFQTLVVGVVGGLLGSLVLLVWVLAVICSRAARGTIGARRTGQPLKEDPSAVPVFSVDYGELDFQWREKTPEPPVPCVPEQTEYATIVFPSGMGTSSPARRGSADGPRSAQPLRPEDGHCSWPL

B1: mAb747c (antibody, V domains shown)
VH: EVQLQQSGAELVRPGASVKLSCTASDFNIKDDYMHWVKQRPEQGLDWIGWIVPENGNTEYASKFQGKATITADTSSNTAYLQLSSLTSEDTAVYYCTVYGDYWGQGTTLTVSS
VL: DIQMTQSPSSLSASLGERVSLNCRASQEISGYLSWLQQKPDGTIKRLIYAASTLDSGVPKRFSGSRSGSDYSLTISSLESEDFAAYYCLQYASYPLTFGAGTKLELK
notes: also called mAb717c
In the case of B1, the koff [1] is reported as 0.000377 s⁻¹, the koff [2] is reported as 0.00053 s⁻¹ and the “off-rate ratio to that of mAb747c” value [2] is reported as 100%. The koff [3] was 0.00136 s⁻¹, the “off-rate ratio to that of mAb747c” value [3] was 100% and the koff [4] was 0.00123 s⁻¹. For the same binder, the “off-rate ratio to that of mAb747c” value [4] was 100%, the koff [5] was 0.000676 s⁻¹ and the “off-rate ratio to that of mAb747c” value [5] was 100%. For the same binder, the koff [6] was 0.00135 s⁻¹, the “off-rate ratio to that of mAb747c” value [6] was 100% and the koff [7] was 0.00163 s⁻¹. For the same binder, the “off-rate ratio to that of mAb747c” value [7] was 100%, the koff [8] was 0.0015 s⁻¹ and the “off-rate ratio to that of mAb747c” value [8] was 100%. For the same binder, the koff [9] was 0.000615 s⁻¹, the “off-rate ratio to that of mAb747c” value [9] was 100% and the koff [10] was 0.000631 s⁻¹. For the same binder, the “off-rate ratio to that of mAb747c” value [10] was 100%.

B2: mAb746c (antibody, V domains shown)
VH: EVQLQQSGAELVRPGASVKLSCTASDFNIKDDYMHWVKQRPEQGLDWIGWIVPENGNTEYASKFQGKATITADTSSNTAYLQLSSLTSEDTAVYYCTVYGDYWGQGTTLTVSS
VL: DIQMTQSPSSLSASLGERVSLNCRASQEISGYLSWLQQKSDGTIKRLIYAASTLDSGVPKRFSGSRSGSDYSLTISSLESEDFADYYCLQYASYPLTFGAGTKLELK
B2 was tested, and the Kd [11] was 32.5 nM, the koff [11] was 0.000181 s⁻¹ and the kon [11] was 5580 M⁻¹ s⁻¹. The Kd [12] was 16.2 nM, the koff [12] was 0.000154 s⁻¹ and the kon [12] was 9510 M⁻¹ s⁻¹.

B3: mAb709c (antibody, V domains shown)
VH: EVKLVESGGGLVKPGGSLKLSCAASGFTFSFYTMSWVRQTPEKRLEWVATISGGGRDTYYPDSVKGRFTISRDNAKNTLYLHMSSLRSEDTALYYCAGQGGNYLFAYWGQGTLVTVSA
VL: DIVMTQSHKFMSTSVGDSVTITCKASQDVNTVVAWYQQKPGQSLKVLISWASTRHTGVPARFTGSGSGTDYTLTISSVQAEDLALYYCQQHYTTPYTFGGGTQLEIK
notes: also called HumAb709c
Binder B3 has a Kd (human PD-1-His protein) of 0.567 nM, a koff (human PD-1-His protein) of 6.88e-05 s⁻¹ and a kon (human PD-1-His protein) of 121000 M⁻¹ s⁻¹. It also gave a Kd [13] of 0.0337 nM, a koff [13] of 9.72e-06 s⁻¹ and a kon [13] of 288000 M⁻¹ s⁻¹. For the same binder, the IC50 [14] was 0.56 nM, the Kd [15] was 0.035 nM and the koff [15] was 8.82e-06 s⁻¹. The kon [15] was 252000 M⁻¹ s⁻¹ and the IC50 [16] was 0.62 nM.

B4: HumAb747V-73 (antibody, human IgG1, V domains shown)
VH: EVQLVQSGAEVKKPGATVKLSCTASGFNIKDDYMHWVKQRPEQGLDWIGWIVPRNGNTVYASKFQGKATITADTSTNTAYLELSSLRSEDTAVYYCTVYGDYWGQGTTVTVSS
VL: DIQMTQSPSSLSASVGDRVTITCRASQEISGYLSWLQQKPGGAIKRLIYAASTLDSGVPSRFSGSRSGSDYTLTISSLQPEDFADYYCLQYASYPLTFGQGTKLELK
notes: engineered HumAb747-60 variant; human IgG1/kappa constant domains
In the case of B4, the koff [10] is reported as 0.000321 s⁻¹ and the “off-rate ratio to that of mAb747c” value [10] is reported as 51%.

B5: HumAb747-42 (antibody, human IgG1, V domains shown)
VH: EVQLVQSGAEVKKPGASVKVSCKASDFNIKDDYMHWVRQAPGQGLEWIGWIVPENGNTEYASKFQGKATITADTSINTAYMELSRLRSDDTAVYYCTVYGDYWGQGTTVTVSS
VL: DIQMTQSPSSLSASVGDRVTINCRASQEISGYLSWLQQKPEGTIKRLIYAASTLDSGVPSRFSGSRSGSDYTLTISSLQPEDFATYYCLQYASYPLTFGGGTKVEIK
notes: humanized mAb747; human IgG1 and human kappa constant domains
With B5 the koff [1] was 0.00083 s⁻¹, the “off-rate constant, fold of the chimeric control mAb747c” value [1] was 2.2 fold and the koff [7] was 0.00428 s⁻¹. The “off-rate ratio to that of mAb747c” value [7] was 263%.
